From patent US8283162 (AbbVie / Abbott, dated 2012)
Bridges are numbered along the chain shown (N, C = ends). Where no end group is shown, it is not given here.

B1: Gla domain Factor X peptide (sequence 12) (peptide)
peptide: LERECMEETCSYEEA
notes: Synthetic 15-mer homologous to PIVKA-II 13-27, with plain Glu; also called PIVKAII Gla domain (13-27) analog
B2: Gla domain Factor VII peptide (sequence 13) (peptide)
peptide: LERECKEEQCSFEEA
notes: as for B1
B3: Gla domain Protein C peptide (sequence 14) (peptide)
peptide: LERECIEEICDFEEA
notes: as for B1
B4: Gla domain Protein S peptide (sequence 15) (peptide)
peptide: LERECIEELCNKEEA
notes: as for B1
B5: Gla domain Protein Z peptide (sequence 16) (peptide)
peptide: LEKECYEEICVYEEA
notes: as for B1
B6: Gla domain Factor IX peptide (sequence 11) (peptide)
peptide: LERECMEEKCSFEEA
notes: as for B1
B7: monoclonal antibody 3C10 (antibody, V domains shown)
VH: EVQLVESGGDLVKPGGSLKLSCAASGFTFSSYGMSWVRQTPDKRLEWVATISRGGSSTYYPDSVKGRFTISRDNAKNNLYLQMSSLKSEDTAMYYCASLNYGNFFDYWGQGTTLTVSS
VL: DVVMTQTPLSLPVSLGDQASISCRSSQSLVHSNGNTYLHWYLQKPGQSPKLLIYKVSNRFSGVPDRFSGSGSGTDFTLKISRVEAEDLGVYFCSQNRHVPPTFGGGTKLEIKR

What follows are binders tested against B7 (assay: FCS competition: 2 nM Alexa488-PIVKAII (13-27) premixed with 10 nM mAb 3C10, analog peptide added, overnight; D of the tracer; negative control 47±4 (no displacement), positive control 174±10).

Binder	Apparent Diffusion Coefficient (D)
B1	52 um^2/sec
B2	49 um^2/sec
B3	53 um^2/sec
B4	50 um^2/sec
B5	51 um^2/sec
B6	48 um^2/sec

Target: T1, Alexa-488 labeled PIVKAII Gla domain peptide (13-27) (disulfide 5-10; also: Alexa Fluor 488 label, site not given here)
T1 construct: also called Alexa488-PIVKAII peptide (13-27 cyc); Alexa488-PIVKA-II (13-27)
T1 peptide: LERECVEETCSYEEA
Assay: fluorescence quenching titration (FRET): 0.05 nM Alexa488 PIVKAII peptide (13-27), BHQ-labelled mAb 3C10 varied, quenching against free antibody binding sites, simple binding model

Binder	Kd
B7	100 pM
